Assay results as given in US20230374147A1 (HUMMINGBIRD BIOSCIENCE PTE, published 2023).

How the values were obtained:
BCMA Mut = target: T1, BCMA Mut (human, UniProt Q02223 1-184); experiment: flow cytometry on HEK293T cells expressing BCMA Mut
T1 construct: Expressed on HEK293T cells; also called human BCMA comprising the substitutions Y13A, D15A, L17G and L18G
T1 chain: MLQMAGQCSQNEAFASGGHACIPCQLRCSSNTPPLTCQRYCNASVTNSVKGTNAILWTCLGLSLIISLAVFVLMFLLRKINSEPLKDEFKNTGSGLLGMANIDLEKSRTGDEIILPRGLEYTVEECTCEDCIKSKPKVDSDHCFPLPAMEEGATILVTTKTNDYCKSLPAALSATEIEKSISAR

[1] = target: T2, His-tagged human BCMA (Acro Biosystems, Cat. #BCA-H522y) (human, UniProt Q02223 1-54); experiment: competition ELISA: His-tagged human BCMA binding to coated APRIL-Fc in the presence of the antibody
T2 construct: also called huBCMA; P1; not shown: His tag
T2 sequence: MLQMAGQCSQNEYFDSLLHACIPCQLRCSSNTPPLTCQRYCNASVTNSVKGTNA

[2] = target: T3, human BCMA expressed on cells (human, UniProt Q02223 1-184); experiment: flow cytometry, H929 cells (BCMA+)
T3 construct: the cell line is named under assay; also called wildtype human BCMA
T3 sequence: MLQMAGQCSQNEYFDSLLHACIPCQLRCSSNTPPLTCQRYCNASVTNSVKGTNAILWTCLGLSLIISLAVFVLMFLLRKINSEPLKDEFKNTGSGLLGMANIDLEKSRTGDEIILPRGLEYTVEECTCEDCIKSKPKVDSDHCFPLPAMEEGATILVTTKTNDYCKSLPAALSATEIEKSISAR

[3] = target: T3, human BCMA expressed on cells; experiment: flow cytometry, fixed RPMI 8226 cells (BCMA+, TACI+: the cells carry both targets)
[4] = target: T4, His-tagged cynomolgous macaque BCMA (Acro Biosystems, BCA-C52H7) (cynomolgus macaque, UniProt Q02223 1-54 (human entry)); experiment: BLI, His-tagged cynomolgus BCMA on HIS1K tip; R2 0.9963
T4 construct: Bought protein; also called cyno BCMA; CyBCMA; not shown: His tag

[5] = target: T5, cynomolgous macaque BCMA expressed on CHOK1 cells; experiment: flow cytometry, CHOK1 cells transiently expressing cynomolgus BCMA
T5 construct: also called cyno BCMA on cells

B1: J6M0 (antibody, V domains shown)
VH: QVQLVQSGAEVKKPGSSVKVSCKASGGTFSNYWMHWVRQAPGQGLEWMGATYRGHSDTYYNQKFKGRVTITADKSTSTAYMELSSLRSEDTAVYYCARGAIYDGYDVLDNWGQGTLVTVSS
VL: DIQMTQSPSSLSASVGDRVTITCSASQDISNYLNWYQQKPGKAPKLLIYYTSNLHSGVPSRFSGSGSGTDFTLTISSLQPEDFATYYCQQYRKLPWTFGQGTKLEIK
notes: also called J6M0-hIgG1; anti-BCMA
B1 was tested, and the binding result (BCMA Mut) was “binds”, the “IC50 (read off the curve)” value [1] was about 0.5 µg/mL and the EC50 [2] was 1.77 nM. The EC50 [3] was about 9.61 nM, the Kd [4] was under 0.001 nM and the binding result [5] was “binds”.
